Earlier results, collected in US12539328B2, “Oral vaccine via dental bacteria and emitted peptides to prevent COVID-19 infection” (priority 2021, dated 2026).

B1: AHB1 (protein)
chain: DEDLEELERLYRKAEEVAKEAKDASRRGDDERAKEQMERAMRLDQVFELAQELQEKQTDGNRQKATHLDKAVKEAADELYQRVR
B2: AHB2 (protein)
chain: ELEEQVMHVLDQVSELAHELLHKLTGEELERAAYFNWWATEMMLELIKSDDEREIREIEEEARRILEHLEELARK

System: SARS-CoV-2 infection of Vero E6 cells
Conditions: first approach, built around an ACE2 helix; read-out: IC50 of SARS-CoV-2 neutralization

Molecule | IC50 [nM]
B1 | 35
B2 | 15.5
